From paper PMC3985463

Molecular target: His6-UP1 C43S/C175S (hnRNP A1 UP1 domain; ITC) (Homo sapiens, UniProt P09651 1-196, C43S;C175S)
Experiment: ITC

Sequence of His6-UP1 C43S/C175S (hnRNP A1 UP1 domain; ITC) (P09651 1-196 C43S/C175S): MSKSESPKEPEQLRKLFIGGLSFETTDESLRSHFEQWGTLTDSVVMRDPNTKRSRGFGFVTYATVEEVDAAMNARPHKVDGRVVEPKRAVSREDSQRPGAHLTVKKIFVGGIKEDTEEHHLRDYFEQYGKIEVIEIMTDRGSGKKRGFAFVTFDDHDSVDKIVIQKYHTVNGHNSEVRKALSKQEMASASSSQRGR

GAUUAG (ssRNA) [ESS3b loop]
Kd: 4.17 ± 0.421 µM
